± gives the uncertainty stated by the source.

The data set can be described thus: amyloid nucleation score (Sup35N fusion, yeast selection) (log enrichment); library NNK2; higher = more nucleation; inactive = no reads after selection. The method in brief: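 In psi-negative yeast, Sup35N fusions carrying peptides of 20 random codons were induced with 100 μM copper sulfate for 24 hours. The cells then grew 7 days at 30°C on medium lacking adenine and uracil, and plasmid inserts from input and output were Illumina-sequenced, excluding sequences with under 100 input reads. Nucleation score is the DiMSum log enrichment of output over input reads, centred on the mode score of non-aggregating sequences.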
AMMFDVFRYLRESVISMCKG returned an amyloid nucleation score of 0.367 ± 0.54.
In the case of AMNRFST, the amyloid nucleation score is -0.975 ± 1.1.
ANCCLRTWVFCRSYCYIILF: the amyloid nucleation score was -0.014 ± 0.8.
Regarding ANGSKGLVLTLNGDSKCVEC, the amyloid nucleation score was 0.188 ± 0.25.
ANKSAGVLYNAASDLRVGVR: the amyloid nucleation score worked out at 0.923 ± 0.55.
In the case of ANPQSKLLNVSFIGTVQGWV, the amyloid nucleation score is 3.04 ± 0.12.
The same measure for ANPWDRSFIVKVCRSDVVRV: 0.246 ± 0.38; for ANRKRVK: 0.223 ± 0.61.
The same measure for ANSAYCIGLCLGNCFMSYFC: 7.452 ± 0.043.
Turning to ANSPVGHEPGFECKSGFRET, the amyloid nucleation score stood at 0.168 ± 0.57.
ANTFIPFFGISSVRSGRNAA registered an amyloid nucleation score of 2.65 ± 0.11.
For the substance ANTVHLKMLANSRSPDGTFR, the amyloid nucleation score came to 0.441 ± 0.32.
On to ANVENVAYSDTISRSDSDVT, for which the amyloid nucleation score stood at 0.805 ± 0.66.
As for APFDMVGVTVLDSPVMYTNA, the amyloid nucleation score was found to be 0.512 ± 0.43.
APVMYVT returned an amyloid nucleation score of 0.057 ± 0.48.
On to AQWCEGVVSLQLSWVVCVEG, for which the amyloid nucleation score worked out at 1.16 ± 0.34.
In the case of ARCDCGFVRGGNCVVQYCLS, the amyloid nucleation score came to 7.529 ± 0.04.
ARECNY gave an amyloid nucleation score of 3.78 ± 0.063.
Consider ARLKLDRRPMKSSMVCIHSA, for which the amyloid nucleation score was 6.16 ± 0.089.
The same measure for ARVRVYRWWTLATTWGRVGF: 2.85 ± 0.14.
Turning to ASGVYHDSFRRLCCMGDLSC, the amyloid nucleation score is -0.121 ± 0.18.
Substance ASHRVNGEVRYRRWSVLKRM gave an amyloid nucleation score of 0.839 ± 0.24.
With ASMYLNSSH the entry was “inactive”.
With ASNAFRSGYWQGERHERMRL, the amyloid nucleation score turned out to be 1.07 ± 0.14.
The substance ASSIG showed an amyloid nucleation score of 0.072 ± 0.26.
In the case of ASSSGPGCSLVSSVHASRQG, the amyloid nucleation score was found to be 1.54 ± 0.52.
On to ASVPCVIMGRASRPRVPRMS, for which the amyloid nucleation score was 1.42 ± 0.29.
ASWIAGYITMHTISSFP registered an amyloid nucleation score of 0.056 ± 0.36.
Consider ATARS, for which the amyloid nucleation score came to 0.701 ± 0.29.
With ATHVCVGFTYGFWW the figure was 2.4 ± 0.14.
With ATKVISALSIRMRRK the figure was 1.32 ± 0.3; with ATRCGDFDQACHSGIT, 0.749 ± 0.28; with ATVRFWWKFVYACGMAWWWV, 0.001 ± 0.55.
Take AVCTESMLWS: the amyloid nucleation score amounted to 0.057 ± 0.16.
In the case of AVDSHVIYSV, the amyloid nucleation score was -0.96 ± 0.45.
Regarding AVPMMSWSFIVSYVGRNNSM, the amyloid nucleation score came out at 1.7 ± 0.19.
With AVSFWSIF the figure was 0.307 ± 0.64; with AVVFSNCGCFSMKFYMVVAT, -2.06 ± 0.48; with AVWCDFHSERAMCVVGM, 5.249 ± 0.043.
Consider AWCFSWHQKLLAR, for which the amyloid nucleation score amounted to 0.471 ± 0.36.
For AWDGIHTMMITYLKFIEKCQ, the amyloid nucleation score is -1.31 ± 0.62.
On to AWGGSRNRMYFYHSPVRFFE, for which the amyloid nucleation score came out at 4.5 ± 0.088.
AWGYDKAVIFGAVDLQHVGT yielded an amyloid nucleation score of 0.062 ± 0.79.
AYAKGYCLLSPVLDWRLHFS: the amyloid nucleation score is 2.52 ± 0.13.
As for AYCFVGFALVRCVGANDVRR, the amyloid nucleation score was found to be 1.6 ± 0.22.
With AYEGFISYLIYLSIRNSSPC the entry was “inactive”; with AYHNLRN, 0.191 ± 0.63.
Turning to AYIDVTWWPFVFLDQVMYTT, the amyloid nucleation score was 0.089 ± 0.48.
The same measure for AYINRHVEWRCTVRTVALSS: 0.664 ± 0.38; for AYIVDTKVT: 1.11 ± 0.68; for AYSSMCSTMRNKCCL: 0.504 ± 0.6.
The substance AYTMQLNHRLVLSVSS gave an amyloid nucleation score of 0.219 ± 0.74.
For the substance CAGMWRFMGMVFGISTLFQC, the amyloid nucleation score was -1.44 ± 0.41.
Substance CAKGPKSWQNGNE showed an amyloid nucleation score of 0.626 ± 0.8.
For the substance CANFRSGYGA, the amyloid nucleation score was -0.241 ± 0.35.
For the substance CAPDVQWFSKIAFE, the amyloid nucleation score was found to be 1.1 ± 0.53.
For the substance CAPFVRDFINMVCRRMPNTN, the amyloid nucleation score is 0.566 ± 0.66.
The same measure for CARSWLRVLGTSPEKMKG: 0.627 ± 0.74.
With CASAFCLTRE the figure was 4.49 ± 0.057.
In the case of CASMVIMG, the amyloid nucleation score entry is “inactive”.
CCGGVRMMEELRCSTWSRVV gave an amyloid nucleation score of 0.868 ± 0.26.
In turn, CCQSFNVNRSTLNNLGRSYL registered an amyloid nucleation score of 0.848 ± 0.16.
CCTTIEGDTLCGCFWD had an amyloid nucleation score of 10.08 ± 0.038.
Substance CCVGGVPV displayed an amyloid nucleation score of 2.57 ± 0.083.
On to CCVVIKN, for which the amyloid nucleation score amounted to 6.08 ± 0.079.
The same measure for CDFLWWPTQFANRRTKVGVW: 0.083 ± 0.76.
In the case of CDKFFLDF, the amyloid nucleation score was -1.9 ± 0.48.
In the case of CDLKERTEYMHFLLTFYLVR, the amyloid nucleation score is -0.891 ± 0.36.
With CDSVLPRLLNYKYTKNK, the amyloid nucleation score amounted to 0.14 ± 0.63.
Turning to CECVSSCVYSVILLGCTRSF, the amyloid nucleation score result is “inactive”.
Consider CEDSCSSCNGILLDVREERS, for which the amyloid nucleation score stood at 1.89 ± 0.076.
The same measure for CFDEFTLCKVLWNMFSTFLG: -0.707 ± 1.1; for CFGVRDSGRYFDTLSNVRSR: 1.11 ± 0.68.
Take CFKLTNINAL: the amyloid nucleation score entry was “inactive”.
Take CFLMNKVT: the amyloid nucleation score was -1.5 ± 0.49.
With CFLVDFHVARSVDSYVELGS the figure was -0.436 ± 1.1; with CFRKFRMEEPLGIRFSHLDT, -0.345 ± 0.21; with CFSLYSCKDSINDMLKRSQN, -1.12 ± 1.1.
The same measure for CFSSIQIRDKTVVGDSWMFR: 3.58 ± 0.14; for CFVKRLHVLWLSKTVCRAVL: 0.113 ± 0.21; for CFWWNPGSILIRWCLKVLPG: -1.59 ± 0.54.
CGLNCVAGGREEDRVYVLSS came in with an amyloid nucleation score of 0.088 ± 0.22.
As for CGMISLSSNVMSFALPFLYY, the amyloid nucleation score stood at 0.824 ± 0.15.
CGNISQVKEDLRMTTLIFRV: the amyloid nucleation score result is “inactive”.
The same measure for CGNNCTQYRHDWWGGMKLRD: 2.38 ± 0.085; for CGQLSVWYEGMINVSCFLEI: -1.4 ± 0.75; for CGRLGLHYQCMLCCGIGSIL: 2.23 ± 0.27.
With CGRRILSRWVITLLVPGGSF the entry was “inactive”; with CGRVTTFSLRNVARVCVSAF, -0.308 ± 0.25.
CHCWSELIQIFII had an amyloid nucleation score of 5.86 ± 0.061.
With CHSGVFRVKSCTEYRMGLYS the entry was “inactive”; with CHVCFRETARYMCVGWYYGS, -0.283 ± 0.65; with CHVVVVLEF, 2.71 ± 0.078.
In the case of CHYKMHSLHTARFEFFVMLF, the amyloid nucleation score was -0.413 ± 0.41.
In turn, CICLIMRTKTCELGSLLG registered an amyloid nucleation score of 5.781 ± 0.046.
Regarding CIDRFHTVPLAVHSVCGILL, the amyloid nucleation score is -0.319 ± 0.76.
Substance CIFWVRCKFYGNLNFGCLYD had an amyloid nucleation score of 7 ± 0.078.
Consider CIGYKLLLGELLAP, for which the amyloid nucleation score stood at 0.137 ± 0.5.
On to CIIVISFLTITWKCAEPELQ, for which the amyloid nucleation score entry is “inactive”.
Substance CIMCGALEIGFGIIRGWEDF gave an amyloid nucleation score of 9.421 ± 0.067.
In the case of CIMPVCVYDCLPLGRGIYWR, the amyloid nucleation score was determined as 0.745 ± 0.22.
Substance CIQTSSREVSFRSIATDGST had an amyloid nucleation score of 4.27 ± 0.047.
In turn, CISVPMIFDFTIWA gave an amyloid nucleation score of 6.64 ± 0.071.
Substance CITVFAVINMQSAAVSCKQV returned an amyloid nucleation score of 6.72 ± 0.07.
As for CIVCFVFMLKRALLLHFCIA, the amyloid nucleation score is -0.81 ± 1.
In the case of CIVSVNERRVVFGAVNTEFR, the amyloid nucleation score stood at 4.79 ± 0.058.
Turning to CKFWYLARWWIFLWSPRYK, the amyloid nucleation score was -0.153 ± 1.1.
The same measure for CKLMMGVFVLTVNTCGDVSS: 5.33 ± 0.054; for CKLTRGSPMSYSEVR: -0.188 ± 0.29; for CKRQYHYLIWRMMEMSPGVL: 5.07 ± 0.058.
With CKRSTH the figure was -0.461 ± 0.49; with CKTHPKKNSGFWRKLKGCLG, 3.17 ± 0.15; with CKVHVQVNTESYTGIVMTYY, 4.65 ± 0.039.
For CLFSILLVMIPASFYTAMWL, the amyloid nucleation score is -0.588 ± 1.1.
CLGKSRYCISDWKFLSLWPN: the amyloid nucleation score was -0.932 ± 0.55.
The same measure for CLGNVCNSFNWLDVRACVWR: 1.52 ± 0.23; for CLIDFWKRDFKSAVDSKGTA: 0.125 ± 0.65; for CLKGKYESYNADVNAHYSLA: 0.13 ± 0.45.
With CLLIGLAMGMVCSLPLGRIL the figure was 0.123 ± 1; with CLLVSEQRSRRHRRGALCIG, 0.872 ± 0.32.
Substance CLNQSLRNTSWKHMAEPKKR yielded an amyloid nucleation score of 3.82 ± 0.12.
With CLPCCGAFNKCANRYQVSEM, the amyloid nucleation score was -0.249 ± 0.39.
Take CLRILGDISSFRGMRHTTLH: the amyloid nucleation score is 0.042 ± 1.1.
CLSFIILMWLDRNVGMVQI: the amyloid nucleation score was -0.579 ± 0.49.
Turning to CLSNL, the amyloid nucleation score was -0.864 ± 0.48.
For CLTTRTSGHNGYQRHDLI, the amyloid nucleation score result is “inactive”.
As for CLVKCAMPILVINICAG, the amyloid nucleation score is 7.82 ± 0.061.
In turn, CMGNSYFMFNSYANFKNNWA displayed an amyloid nucleation score of 5.54 ± 0.093.
With CMISTDLKVTRALSTHKNCI the figure was 0.02 ± 0.56; with CMLASSFMVVRSRLLSSRAM, 1.14 ± 0.32.
Regarding CMNTISVLSECASTRQTC, the amyloid nucleation score was -0.068 ± 0.31.
The same measure for CMPMISRVLGCDNSYYMSSA: 0.029 ± 0.4.
As for CMRGLVKAGMIMTVFDRLSY, the amyloid nucleation score was -1.22 ± 1.1.
With CMTSKVLRLDYRRMMVNIDC the figure was -0.58 ± 0.42.
CMTTYTNLIHIPIQVSTPKR: the amyloid nucleation score was 7.51 ± 0.043.
The same measure for CMVIRSW: -0.064 ± 0.34; for CNDGMTTSDYWWCSARLDPY: 0.345 ± 0.2; for CNFKINRAHNELPLDDLRNF: “inactive”.

(Values after the supplement of paper PMC12042874.)
